± gives the uncertainty stated by the source.
Assay: self-splicing fitness, log relative to wild type (ln ratio); higher = more splicing; Tetrahymena group I intron in knt gene, E. coli kanamycin selection, DiMSum; sequences stand for … in CUCUCU…GGAGGGAAAAGUUAUCAGGCAUGCACCUGGUAGCUAGUCUUUAAACCAAUAGAUUGCAUCGGUUUAAAAGGCAAGACCGUCAAAUUGCGGGAAAGGGGUCAACAGCCGUUCAGUACCAAGUCUCAGGGGAAACUUUGAGAUGGCCUUGCAAAGGGUAUGGUAAUAAGCUGACGGACAUGGUCCUAACCACGCAGCCAAGUCCUAAGUCAACAGAUCUUCUGUUGAUAUGGAUGCAGUUCACAGACUAAAUGUCGGUCGGGGAAGAUGUAUUCUUCUCAUAAGAUAUAGUCGGACCUCUCCUUAAUGGGAGCUAGCGGAUGAAGUGAUGCAACACUGGAGCCGCUGGGAACUAAUUUGUAUGCGAAAGUAUAUUGAUUAGUUUUGGAGUACUCGUGGUCG
Procedure, shortened: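 Colonies from six replicate transformations of E. coli BL21(DE3) were pooled and amplicon-sequenced on an Illumina HiSeq 2500. The library placed an intron with all eight P1ex-region nucleotides randomised inside the knt kanamycin-resistance gene on pET-22b(+), and cells grew overnight at 37°C or 30°C on LB agar with or without 25 μg/mL kanamycin (plus 100 μg/mL carbenicillin, 50 μM IPTG, 0.2% rhamnose). Fitness is the DiMSum error-weighted combination of wild-type-normalised replicate fold changes, kanamycin versus none.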

Sequence	self-splicing fitness (ln) (30 °C)	self-splicing fitness (ln) (37 °C)
GUGUAGCAAUAUUACGAGUU	-2.8 ± 0.15	-1.39 ± 0.11
CCUGAGCAAUAUUACGCGGG	-3.41 ± 0.26	-2.22 ± 0.34
GGCCAGCAAUAUUACGAGCU	-2.58 ± 0.4	–
CAGAAGCAAUAUUACGCACU	-2.13 ± 0.14	-1.36 ± 0.14
CGGUAGCAAUAUUACGCCUA	-0.535 ± 0.14	-0.215 ± 0.11
AUGUAGCAAUAUUACGUUGC	-3.43 ± 0.27	-3.08 ± 0.32
AACCAGCAAUAUUACGAGAA	-1.71 ± 0.14	-1.02 ± 0.13
GGCGAGCAAUAUUACGCGGA	-2.3 ± 0.17	-0.458 ± 0.13
GCAAAGCAAUAUUACGCACA	-0.917 ± 0.12	-0.182 ± 0.14
AGCGAGCAAUAUUACGCGUA	-2.95 ± 0.34	-1.7 ± 0.18
UCAAAGCAAUAUUACGCAGC	-3.94 ± 0.29	-2.72 ± 0.17
AUCCAGCAAUAUUACGUAGG	-2.91 ± 0.14	-1.49 ± 0.12
AUAUAGCAAUAUUACGCUUG	-1.42 ± 0.11	-0.589 ± 0.13
CCGGAGCAAUAUUACGGAAU	-2.95 ± 0.26	-2.96 ± 0.25
GUGGAGCAAUAUUACGGUAU	-2.04 ± 0.23	-1.71 ± 0.27
AGUCAGCAAUAUUACGGUAA	-2.02 ± 0.12	-1.19 ± 0.099
UAGUAGCAAUAUUACGUAAG	-4.17 ± 0.46	-1.11 ± 0.23
GUUUAGCAAUAUUACGCGUA	-0.947 ± 0.14	-0.606 ± 0.15
GGCCAGCAAUAUUACGUGUU	-0.771 ± 0.055	-0.0103 ± 0.07
AAAAAGCAAUAUUACGCCAG	-2.24 ± 0.14	-2.24 ± 0.23
CGUAAGCAAUAUUACGGUUG	-0.897 ± 0.061	-0.159 ± 0.078
UUCCAGCAAUAUUACGUCUC	-3.17 ± 0.23	-1.83 ± 0.2
CACCAGCAAUAUUACGCUUC	-4.12 ± 0.34	-1.45 ± 0.13
GGUUAGCAAUAUUACGGGCG	0.777 ± 0.094	0.208 ± 0.1
GGCGAGCAAUAUUACGCAUG	-1.32 ± 0.22	-0.82 ± 0.23

Sequence	self-splicing fitness (ln) (30 °C)	self-splicing fitness (ln) (37 °C)
CGCGAGCAAUAUUACGGUGG	-2.1 ± 0.1	-1.43 ± 0.13
ACGUAGCAAUAUUACGUUCA	-2.31 ± 0.13	-0.777 ± 0.12
CCUUAGCAAUAUUACGCAUG	-3.78 ± 0.19	-2.14 ± 0.18
AUUCAGCAAUAUUACGCGUC	-1.11 ± 0.17	-0.615 ± 0.21
AAAGAGCAAUAUUACGGAGU	-3.33 ± 0.2	-3.16 ± 0.26
ACUGAGCAAUAUUACGCGUA	-1.8 ± 0.15	-3.16 ± 0.28
CAACAGCAAUAUUACGCGAC	-3.56 ± 0.12	-1.5 ± 0.12
GAGCAGCAAUAUUACGUUUU	-2.63 ± 0.092	-2.3 ± 0.12
CGCCAGCAAUAUUACGUGAA	-1.76 ± 0.1	-1.1 ± 0.14
UAGAAGCAAUAUUACGAUCC	-2.25 ± 0.23	-1.45 ± 0.3
UUCAAGCAAUAUUACGAAAG	-3.65 ± 0.24	-2.39 ± 0.28
CUCUAGCAAUAUUACGUGCU	-2.48 ± 0.3	-2.38 ± 0.27
GUACAGCAAUAUUACGCGAU	-4.98 ± 0.46	-2.71 ± 0.26
AUAGAGCAAUAUUACGAAGG	–	-1.24 ± 0.39
AGAUAGCAAUAUUACGGCAG	-0.945 ± 0.12	-0.735 ± 0.14
GUACAGCAAUAUUACGCGAC	-4.09 ± 0.28	-1.87 ± 0.16
UUUCAGCAAUAUUACGGCAC	-1.79 ± 0.19	-2.33 ± 0.24
GCUGAGCAAUAUUACGACGU	-1.45 ± 0.057	-0.232 ± 0.064
AUCAAGCAAUAUUACGAACG	-1.61 ± 0.13	-0.462 ± 0.13
CUCCAGCAAUAUUACGCUUA	-4.14 ± 0.34	-2.49 ± 0.24
UCGGAGCAAUAUUACGGUAC	-3.19 ± 0.29	-3.59 ± 0.36
GAUGAGCAAUAUUACGUUUG	-3.24 ± 0.21	-2.77 ± 0.26
CCUAAGCAAUAUUACGAUUA	-3.04 ± 0.19	-2.62 ± 0.22
GCGUAGCAAUAUUACGCCAU	-2.97 ± 0.31	-2.93 ± 0.47
CAUCAGCAAUAUUACGUGAA	-0.729 ± 0.055	-0.211 ± 0.09

Sequence	self-splicing fitness (ln) (30 °C)	self-splicing fitness (ln) (37 °C)
UACGAGCAAUAUUACGGUUG	-2.72 ± 0.13	-2.11 ± 0.16
UAGGAGCAAUAUUACGGCGC	-1.76 ± 0.36	-2.54 ± 0.41
UUGUAGCAAUAUUACGGGUG	-2.02 ± 0.11	-0.808 ± 0.096
UUGCAGCAAUAUUACGCGAG	-3.18 ± 0.12	-1.73 ± 0.12
UGUCAGCAAUAUUACGGGGU	-2.91 ± 0.18	-2.49 ± 0.23
UGGUAGCAAUAUUACGAGAC	-1.69 ± 0.24	-2.71 ± 0.43
CCGCAGCAAUAUUACGUUCC	-3.27 ± 0.41	-1.54 ± 0.43
CCUUAGCAAUAUUACGCGGC	-2.89 ± 0.27	-3.63 ± 0.42
UUUCAGCAAUAUUACGAUGA	-0.807 ± 0.081	-0.285 ± 0.075
CCCCAGCAAUAUUACGGUAC	-3.84 ± 0.25	-2.66 ± 0.21
UCUAAGCAAUAUUACGUUCU	-3.14 ± 0.22	-1.47 ± 0.14
GUACAGCAAUAUUACGCAAC	-2.08 ± 0.18	-0.557 ± 0.17
GCUAAGCAAUAUUACGCGCA	-0.989 ± 0.1	-0.114 ± 0.12
CCCGAGCAAUAUUACGUCCA	-3.48 ± 0.25	-2.26 ± 0.24
AGGAAGCAAUAUUACGACUG	-0.619 ± 0.094	0.0357 ± 0.1
AAGUAGCAAUAUUACGCAUU	-2.16 ± 0.14	-0.921 ± 0.14
UGCCAGCAAUAUUACGACCC	-3.56 ± 0.24	-1.42 ± 0.21
CCUAAGCAAUAUUACGGUUC	-3.88 ± 0.23	-2.59 ± 0.22
CUUAAGCAAUAUUACGAAGC	-3.09 ± 0.36	-2.17 ± 0.31
GCCAAGCAAUAUUACGGUUC	-2.61 ± 0.16	-0.763 ± 0.12
GCCGAGCAAUAUUACGUUCC	-1.3 ± 0.2	-0.589 ± 0.25
CACAAGCAAUAUUACGAAGU	-3.68 ± 0.16	-1.43 ± 0.12
CUCGAGCAAUAUUACGUCAA	-3.49 ± 0.3	-1.81 ± 0.26
CAGUAGCAAUAUUACGGUUC	-2.7 ± 0.25	-2.53 ± 0.29
CGAAAGCAAUAUUACGUAAG	-0.262 ± 0.049	-0.000374 ± 0.07

Reference: the supplement of paper PMC7877785
